Four molecules from US20240011046A1 (UNIVERSITY OF PITTSBURGH OF THE COMMONWEALTH SYSTEM OF …, published 2024) can be followed below.

Test [1] addresses TGF-β receptor II (TβRII) on the HEK-293 TGF-β CAGA-Luc reporter cells (UniProt P37173 23-567, limits assumed). As to the kind of experiment: cell-based or functional assay.
Test [2] concerns the target T1, TGF-β type II receptor (TβRII) (UniProt P37173 38-159).
T1 construct: Soluble protein: injected in ITC, and 2 µg run on the native gel; also called TGF-β receptor II; transforming growth factor-β type 2 receptor
Briefly: ITC: TβRII injected into the monomer, three replicate titrations globally fit to a 1:1 binding model (reference control). The protocol: (§1) In order to evaluate the ability of the mmTGF-β2-7M variants described herein (mmTGF-β2-7M2R (SEQ ID NO: 9), mmTGF-β2-2M-De18-17 (SEQ ID NO: 10), and mmTGF-β2-7M-PRDC (SEQ ID NO: 11)) to bind TβRII, isothermal titration calorimetry (ITC) and native gels were used. The ITC binding experiments were performed by injecting increasing amounts of TβRII into mmTGF-β2-7M2R (SEQ ID NO: 9) or mmTGF-β2-2M-De18-17 (SEQ ID NO: 10), with mmTGF-β2-7M (SEQ ID NO: 7) used a reference control. These titrations yielded readily detectable isotherms with a large negative enthalpy and a near 1:1 binding stoichiometry (FIG. 8).
In general terms: In ITC the heat of successive injections is recorded.

For test [3], the target named is T1, TGF-β type II receptor (TβRII). Briefly: ITC: TβRII injected into the monomer, three replicate titrations globally fit to a 1:1 binding model. The protocol:
as §1

Chain of TGF-β receptor II (TβRII) on the HEK-293 TGF-β CAGA-Luc reporter cells (P37173 23-567 limits assumed): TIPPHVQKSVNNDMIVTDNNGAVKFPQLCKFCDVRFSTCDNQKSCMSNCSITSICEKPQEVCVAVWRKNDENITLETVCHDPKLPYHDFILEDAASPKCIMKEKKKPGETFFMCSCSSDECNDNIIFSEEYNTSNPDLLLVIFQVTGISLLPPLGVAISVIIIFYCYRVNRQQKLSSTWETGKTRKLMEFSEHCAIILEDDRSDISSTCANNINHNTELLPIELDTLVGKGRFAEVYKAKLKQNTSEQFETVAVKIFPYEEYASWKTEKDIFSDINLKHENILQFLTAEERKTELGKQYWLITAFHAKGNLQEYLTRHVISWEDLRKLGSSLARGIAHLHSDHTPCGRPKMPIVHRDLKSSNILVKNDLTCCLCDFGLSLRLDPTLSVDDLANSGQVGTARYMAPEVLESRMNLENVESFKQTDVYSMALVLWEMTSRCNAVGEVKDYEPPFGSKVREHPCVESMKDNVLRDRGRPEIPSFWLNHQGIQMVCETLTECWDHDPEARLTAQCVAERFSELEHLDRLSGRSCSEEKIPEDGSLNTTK
T1 sequence (P37173 38-159 limits assumed): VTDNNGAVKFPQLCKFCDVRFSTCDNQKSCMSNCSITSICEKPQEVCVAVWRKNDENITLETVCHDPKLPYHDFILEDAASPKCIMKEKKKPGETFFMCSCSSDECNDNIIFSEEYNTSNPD

B1: mmTGF-β2-7M-PRDC (designed binder)
chain: KEVLASSQEALVVTERKYLKSDWCKLRPLYIDFRKDLGWKWIHEPKGYNANFCYGQCNSFYIPRHVKKEEDSFQSSAFCVSQDLEPLTIVYYVGRKPKVEQLSNMIVKSCRCMSV
On to B1, for which, in test [1], the “HEK-293 CAGA-Luc TGF-β reporter assay, IC50 relative to mmTGF-β2-7M” value was about 5 fold and the “HEK-293 CAGA-Luc TGF-β reporter assay, inhibition of signaling stimulated by 10 pM TGF-β3, IC50” value came out at 282 nM.

B2: mmTGF-β2-7M (designed binder)
chain: ALDAAYCFRNVQDNCCLRPLYIDFRKDLGWKWIHEPKGYNANFCAGACPYRASKSPSCVSQDLEPLTIVYYVGRKPKVEQLSNMIVKSCKCS
notes: also called dnTGFβ2^mm; mini-monomer
As a reminder, the Kd is the equilibrium constant for the complex coming apart. A high value points to weaker binding. B2 yielded a Kd in test [2] of 60.5 nM. Further, in test [1], the “HEK-293 CAGA-Luc TGF-β reporter assay, inhibition of signaling stimulated by 10 pM TGF-β3, IC50” value is 58.2 nM.

B3: mmTGF-β2-7M2R (designed binder)
chain: ALDAAYCFRNVQDNCCLRPLYIDFRKDLGWKWIHEPKGYNANFCAGACPYRASKSPRCRSQDLEPLTIVYYVGRKPKVEQLSNMIVKSCKCS
notes: Made to reduce aggregation
In turn, B3 displayed a Kd in test [3] of 75.1 nM. Besides, in test [1], the “HEK-293 CAGA-Luc TGF-β reporter assay, inhibition of signaling stimulated by 10 pM TGF-β3, IC50” value amounted to 53.3 nM.

B4: mmTGF-β2-2M-Del8-17 (designed binder)
chain: ALDAAYVFRNVQDNCALRPLYIDFRRDLGWKWIHEPKGYNANFCAGACPYRASKSPSCVSQDLEPLTILYYIGRTPKIEQLSNMIVKSCKCS
notes: The 8-17 disulfide is eliminated; also called mmTGF-β2-2M-De18-17; mmTGF-β2-2M-De18_17
B4 registered a dissociation constant (Kd) in test [3] of 80.1 nM. For the same molecule, the “HEK-293 CAGA-Luc TGF-β reporter assay, inhibition of signaling stimulated by 10 pM TGF-β3, IC50” value in test [1] was 111 nM.
